Results on two molecules are retold here after US6878520 (MERCK, dated 2005).

Assay [1] concerns the target T1, human melanocortin-3 receptor (human, UniProt P41968 1-323).
T1 construct: whole, on cells; Assayed as membranes prepared from stably expressing cells; also called hMC3R; MC3R
The assay can be described thus: inhibition of 125I-NDP-α-MSH binding to membranes of cells expressing human MC3R. As to the method:
(§1) Binding assays were done in the same manner as described in Fong et al., 1997, Biochem. Biophys. Res. Comm. 237:629–631. Binding assays were carried out using membranes prepared from L cells or CHO cells stably expressing human MC3R, MC4R or MC5R. […] The above mixture in binding buffer (50 mM Tris, 2 mM CaCl_2, 1 mM MgCl_2, 5 mM KCl, pH 7.2) was incubated at room temperature for 2 hours, followed by filtration through GFC paper. The bound ligand was quantitated in a γ counter. IC$50$ values were calculated as previously described (Fong et al., 1996, Mol. Pharmacol. 50:1605–1611).

Assay [2] concerns the target T2, human melanocortin-4 receptor (human, UniProt P32245 1-332).
T2 construct: whole, on cells; Assayed as membranes prepared from stably expressing cells; also called hMC4R; MC4R
Kind of assay: inhibition of 125I-NDP-α-MSH binding to membranes of cells expressing human MC4R. The procedure: as §1

T2 sequence (P32245 whole entry): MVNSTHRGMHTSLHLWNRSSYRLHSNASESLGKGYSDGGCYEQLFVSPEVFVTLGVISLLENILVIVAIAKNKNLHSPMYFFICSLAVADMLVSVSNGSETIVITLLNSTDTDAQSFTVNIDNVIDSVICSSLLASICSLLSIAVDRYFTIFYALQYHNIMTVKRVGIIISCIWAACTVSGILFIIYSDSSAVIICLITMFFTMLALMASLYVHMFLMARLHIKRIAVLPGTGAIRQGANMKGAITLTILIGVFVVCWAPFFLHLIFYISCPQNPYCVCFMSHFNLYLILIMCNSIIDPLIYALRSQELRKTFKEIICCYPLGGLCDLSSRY
T1 sequence (P41968 whole entry): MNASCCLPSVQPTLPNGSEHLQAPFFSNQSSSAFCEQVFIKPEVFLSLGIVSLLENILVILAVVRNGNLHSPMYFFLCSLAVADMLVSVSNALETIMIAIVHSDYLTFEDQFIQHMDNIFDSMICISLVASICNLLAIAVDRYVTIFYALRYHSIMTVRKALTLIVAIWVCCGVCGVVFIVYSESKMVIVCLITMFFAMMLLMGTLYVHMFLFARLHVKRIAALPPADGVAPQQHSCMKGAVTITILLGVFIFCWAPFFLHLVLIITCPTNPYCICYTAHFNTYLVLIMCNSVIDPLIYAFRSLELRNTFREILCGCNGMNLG

B1: full-length human ART protein (ligand)
chain: AQMGLAPMEGIRRPDQALLPELPGLGLRAPLKKTNAEQAEEDLLQEAQALAEVLDLQDREPRSSRRCVRLHESCLGQQVPCCDPCATCYCRFFNAFCYCRKLGTAMNPCSRTLVPRGSGSELGTKLGPEQKLISEEDLNSAVDHHHHHH
notes: also called full length ART; full-length ART protein
What is called IC50 is the midpoint of a concentration-inhibition curve. Read a high IC50 as weaker potency. Turning to B1, the IC50 came to 1 nM in assay [1] and 0.5 nM in assay [2].

B2: c-ART-b (ligand)
chain: AQMGLALQDREPRSSRRCVRLHESCLGQQVPCCDPCATCYCRFFNAFCYCRKLGTAMNPCSRTLVPRGSGSELGTKLGPEQKLISEEDLNSAVDHHHHHH
notes: Secreted into the culture medium of transfected COS-7 cells and used as concentrated medium; also called ART polypeptide
As to B2, the IC50 worked out at 1.9 nM in assay [1] and 1.4 nM in assay [2].
